Here are results for two molecules from US20230272045A1 (published 2023).

Experiment in all cases: ELISA
Assay [1] addresses T1, human plasma fibronectin (human, UniProt P02751 32-2296).
For assay [2], the target named is T2, human vitronectin (human, UniProt P04004 20-478).
T2 chain: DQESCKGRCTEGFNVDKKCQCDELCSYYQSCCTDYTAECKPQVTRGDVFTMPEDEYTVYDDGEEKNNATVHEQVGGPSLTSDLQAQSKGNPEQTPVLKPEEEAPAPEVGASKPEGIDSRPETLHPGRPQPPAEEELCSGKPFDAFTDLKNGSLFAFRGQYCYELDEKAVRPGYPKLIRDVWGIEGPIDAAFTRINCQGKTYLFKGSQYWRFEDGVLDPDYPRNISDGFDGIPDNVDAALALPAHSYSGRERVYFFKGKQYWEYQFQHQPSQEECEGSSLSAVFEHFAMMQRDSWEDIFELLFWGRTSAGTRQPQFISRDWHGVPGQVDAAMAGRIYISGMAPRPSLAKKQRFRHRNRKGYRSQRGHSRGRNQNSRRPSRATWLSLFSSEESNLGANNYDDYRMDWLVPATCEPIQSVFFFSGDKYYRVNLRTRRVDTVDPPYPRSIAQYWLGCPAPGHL

Another assay addresses T3, human fibrinogen (human, UniProt P02671 20-644; P02675 31-491; P02679 27-437).
T3 chain 1: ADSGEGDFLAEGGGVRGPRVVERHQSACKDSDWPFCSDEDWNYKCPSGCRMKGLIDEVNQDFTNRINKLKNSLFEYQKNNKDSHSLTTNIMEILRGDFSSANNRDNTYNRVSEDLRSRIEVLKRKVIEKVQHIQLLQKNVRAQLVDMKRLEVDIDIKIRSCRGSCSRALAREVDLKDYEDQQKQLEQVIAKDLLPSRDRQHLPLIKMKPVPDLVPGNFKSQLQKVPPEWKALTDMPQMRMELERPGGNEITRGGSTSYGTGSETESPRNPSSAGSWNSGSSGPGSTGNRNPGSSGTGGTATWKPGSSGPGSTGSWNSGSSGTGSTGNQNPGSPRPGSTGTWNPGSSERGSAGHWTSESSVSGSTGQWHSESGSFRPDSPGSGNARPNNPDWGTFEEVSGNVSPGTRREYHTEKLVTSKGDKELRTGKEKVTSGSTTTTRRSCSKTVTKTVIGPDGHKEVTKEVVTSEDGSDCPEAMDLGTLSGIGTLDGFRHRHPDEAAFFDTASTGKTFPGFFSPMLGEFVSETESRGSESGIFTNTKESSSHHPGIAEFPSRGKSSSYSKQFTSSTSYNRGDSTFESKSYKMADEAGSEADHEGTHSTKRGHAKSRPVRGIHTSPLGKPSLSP
T3 chain 2: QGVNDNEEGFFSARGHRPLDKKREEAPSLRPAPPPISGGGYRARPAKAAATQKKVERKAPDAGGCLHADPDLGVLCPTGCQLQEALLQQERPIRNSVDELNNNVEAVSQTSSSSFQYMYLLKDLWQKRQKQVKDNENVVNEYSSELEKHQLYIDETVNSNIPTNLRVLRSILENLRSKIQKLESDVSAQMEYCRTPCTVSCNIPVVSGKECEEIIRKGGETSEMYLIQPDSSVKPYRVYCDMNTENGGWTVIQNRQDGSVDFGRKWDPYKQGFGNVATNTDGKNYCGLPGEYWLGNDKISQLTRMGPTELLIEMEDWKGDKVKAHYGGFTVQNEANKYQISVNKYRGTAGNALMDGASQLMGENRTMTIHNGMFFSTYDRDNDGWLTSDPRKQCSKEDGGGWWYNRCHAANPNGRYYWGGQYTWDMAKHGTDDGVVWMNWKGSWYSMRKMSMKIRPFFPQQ
T3 chain 3: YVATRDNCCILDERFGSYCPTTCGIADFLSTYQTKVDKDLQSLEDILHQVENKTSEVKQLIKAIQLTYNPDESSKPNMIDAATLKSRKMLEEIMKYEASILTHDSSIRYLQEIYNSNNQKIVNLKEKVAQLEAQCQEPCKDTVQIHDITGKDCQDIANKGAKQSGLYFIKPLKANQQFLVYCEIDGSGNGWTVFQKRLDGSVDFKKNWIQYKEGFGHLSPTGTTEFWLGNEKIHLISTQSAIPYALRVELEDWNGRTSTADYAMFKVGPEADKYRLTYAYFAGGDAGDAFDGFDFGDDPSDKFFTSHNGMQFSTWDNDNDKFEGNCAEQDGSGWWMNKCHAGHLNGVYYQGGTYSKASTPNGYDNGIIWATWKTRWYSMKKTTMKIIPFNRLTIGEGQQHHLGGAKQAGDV

Assay [3] deals with T1, human plasma fibronectin. The source holds these as a separate data set.
For the next assay, the target named is human tenascin C (human, UniProt P24821 23-2201).
Sequence of human tenascin C (P24821 23-2201): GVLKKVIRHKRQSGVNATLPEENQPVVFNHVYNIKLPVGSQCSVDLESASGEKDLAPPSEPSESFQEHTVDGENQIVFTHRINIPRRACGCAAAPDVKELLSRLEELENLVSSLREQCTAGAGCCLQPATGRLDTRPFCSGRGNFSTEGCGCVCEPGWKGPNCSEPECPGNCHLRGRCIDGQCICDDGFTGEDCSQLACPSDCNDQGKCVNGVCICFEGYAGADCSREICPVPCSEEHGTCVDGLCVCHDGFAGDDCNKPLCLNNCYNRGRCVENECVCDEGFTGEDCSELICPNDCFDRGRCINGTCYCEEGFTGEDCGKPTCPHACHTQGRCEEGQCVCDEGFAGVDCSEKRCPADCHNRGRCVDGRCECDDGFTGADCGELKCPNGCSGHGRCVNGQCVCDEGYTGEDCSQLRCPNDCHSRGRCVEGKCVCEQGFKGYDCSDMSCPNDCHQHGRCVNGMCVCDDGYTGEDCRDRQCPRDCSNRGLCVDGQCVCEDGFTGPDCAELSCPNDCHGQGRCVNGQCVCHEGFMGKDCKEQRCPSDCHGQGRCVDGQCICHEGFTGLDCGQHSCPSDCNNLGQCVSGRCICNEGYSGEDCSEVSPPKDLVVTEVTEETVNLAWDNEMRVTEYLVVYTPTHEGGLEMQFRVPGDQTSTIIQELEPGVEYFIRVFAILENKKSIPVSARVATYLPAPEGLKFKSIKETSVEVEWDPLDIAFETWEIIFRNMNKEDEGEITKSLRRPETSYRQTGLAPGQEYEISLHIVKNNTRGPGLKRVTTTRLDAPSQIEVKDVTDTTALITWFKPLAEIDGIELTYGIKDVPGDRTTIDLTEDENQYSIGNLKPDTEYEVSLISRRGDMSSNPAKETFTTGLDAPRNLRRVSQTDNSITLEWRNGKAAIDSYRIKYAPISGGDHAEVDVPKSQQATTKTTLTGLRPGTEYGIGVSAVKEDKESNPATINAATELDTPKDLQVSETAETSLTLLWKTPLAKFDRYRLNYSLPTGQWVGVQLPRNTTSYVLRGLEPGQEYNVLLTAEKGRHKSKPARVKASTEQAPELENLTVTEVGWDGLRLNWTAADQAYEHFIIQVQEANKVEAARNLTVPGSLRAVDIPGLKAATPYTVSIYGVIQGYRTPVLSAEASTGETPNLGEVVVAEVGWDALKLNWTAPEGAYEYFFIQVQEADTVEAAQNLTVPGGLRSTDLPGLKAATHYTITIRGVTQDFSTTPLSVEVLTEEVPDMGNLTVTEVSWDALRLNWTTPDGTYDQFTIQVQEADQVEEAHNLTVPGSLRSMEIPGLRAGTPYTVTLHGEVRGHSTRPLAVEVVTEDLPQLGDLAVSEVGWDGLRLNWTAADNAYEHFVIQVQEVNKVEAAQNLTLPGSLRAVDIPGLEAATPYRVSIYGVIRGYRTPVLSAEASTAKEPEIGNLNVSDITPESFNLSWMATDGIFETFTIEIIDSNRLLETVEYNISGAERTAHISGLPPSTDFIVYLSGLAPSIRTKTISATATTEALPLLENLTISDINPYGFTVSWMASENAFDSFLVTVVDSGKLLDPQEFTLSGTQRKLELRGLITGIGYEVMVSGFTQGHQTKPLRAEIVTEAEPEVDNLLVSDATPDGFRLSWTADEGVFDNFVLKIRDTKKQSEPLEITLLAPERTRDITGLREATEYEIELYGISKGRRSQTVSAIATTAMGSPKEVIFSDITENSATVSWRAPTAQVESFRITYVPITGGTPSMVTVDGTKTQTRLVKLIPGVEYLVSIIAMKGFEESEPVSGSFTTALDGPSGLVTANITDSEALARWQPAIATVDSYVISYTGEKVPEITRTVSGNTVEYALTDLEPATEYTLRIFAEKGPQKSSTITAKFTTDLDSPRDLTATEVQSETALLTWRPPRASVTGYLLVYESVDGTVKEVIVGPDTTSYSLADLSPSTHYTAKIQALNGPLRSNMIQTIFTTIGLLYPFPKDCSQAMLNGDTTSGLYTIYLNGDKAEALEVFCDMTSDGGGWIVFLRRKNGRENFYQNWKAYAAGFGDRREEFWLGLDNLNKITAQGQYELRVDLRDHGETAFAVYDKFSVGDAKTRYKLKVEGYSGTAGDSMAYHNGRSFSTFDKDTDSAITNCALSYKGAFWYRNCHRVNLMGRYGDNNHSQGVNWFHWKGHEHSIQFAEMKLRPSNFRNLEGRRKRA
The target in assay [4] is T2, human vitronectin.

Like-named read-outs stand apart in the source and are kept apart here.

T1 sequence (P02751 other isoform, or with tags, fused parts or gaps): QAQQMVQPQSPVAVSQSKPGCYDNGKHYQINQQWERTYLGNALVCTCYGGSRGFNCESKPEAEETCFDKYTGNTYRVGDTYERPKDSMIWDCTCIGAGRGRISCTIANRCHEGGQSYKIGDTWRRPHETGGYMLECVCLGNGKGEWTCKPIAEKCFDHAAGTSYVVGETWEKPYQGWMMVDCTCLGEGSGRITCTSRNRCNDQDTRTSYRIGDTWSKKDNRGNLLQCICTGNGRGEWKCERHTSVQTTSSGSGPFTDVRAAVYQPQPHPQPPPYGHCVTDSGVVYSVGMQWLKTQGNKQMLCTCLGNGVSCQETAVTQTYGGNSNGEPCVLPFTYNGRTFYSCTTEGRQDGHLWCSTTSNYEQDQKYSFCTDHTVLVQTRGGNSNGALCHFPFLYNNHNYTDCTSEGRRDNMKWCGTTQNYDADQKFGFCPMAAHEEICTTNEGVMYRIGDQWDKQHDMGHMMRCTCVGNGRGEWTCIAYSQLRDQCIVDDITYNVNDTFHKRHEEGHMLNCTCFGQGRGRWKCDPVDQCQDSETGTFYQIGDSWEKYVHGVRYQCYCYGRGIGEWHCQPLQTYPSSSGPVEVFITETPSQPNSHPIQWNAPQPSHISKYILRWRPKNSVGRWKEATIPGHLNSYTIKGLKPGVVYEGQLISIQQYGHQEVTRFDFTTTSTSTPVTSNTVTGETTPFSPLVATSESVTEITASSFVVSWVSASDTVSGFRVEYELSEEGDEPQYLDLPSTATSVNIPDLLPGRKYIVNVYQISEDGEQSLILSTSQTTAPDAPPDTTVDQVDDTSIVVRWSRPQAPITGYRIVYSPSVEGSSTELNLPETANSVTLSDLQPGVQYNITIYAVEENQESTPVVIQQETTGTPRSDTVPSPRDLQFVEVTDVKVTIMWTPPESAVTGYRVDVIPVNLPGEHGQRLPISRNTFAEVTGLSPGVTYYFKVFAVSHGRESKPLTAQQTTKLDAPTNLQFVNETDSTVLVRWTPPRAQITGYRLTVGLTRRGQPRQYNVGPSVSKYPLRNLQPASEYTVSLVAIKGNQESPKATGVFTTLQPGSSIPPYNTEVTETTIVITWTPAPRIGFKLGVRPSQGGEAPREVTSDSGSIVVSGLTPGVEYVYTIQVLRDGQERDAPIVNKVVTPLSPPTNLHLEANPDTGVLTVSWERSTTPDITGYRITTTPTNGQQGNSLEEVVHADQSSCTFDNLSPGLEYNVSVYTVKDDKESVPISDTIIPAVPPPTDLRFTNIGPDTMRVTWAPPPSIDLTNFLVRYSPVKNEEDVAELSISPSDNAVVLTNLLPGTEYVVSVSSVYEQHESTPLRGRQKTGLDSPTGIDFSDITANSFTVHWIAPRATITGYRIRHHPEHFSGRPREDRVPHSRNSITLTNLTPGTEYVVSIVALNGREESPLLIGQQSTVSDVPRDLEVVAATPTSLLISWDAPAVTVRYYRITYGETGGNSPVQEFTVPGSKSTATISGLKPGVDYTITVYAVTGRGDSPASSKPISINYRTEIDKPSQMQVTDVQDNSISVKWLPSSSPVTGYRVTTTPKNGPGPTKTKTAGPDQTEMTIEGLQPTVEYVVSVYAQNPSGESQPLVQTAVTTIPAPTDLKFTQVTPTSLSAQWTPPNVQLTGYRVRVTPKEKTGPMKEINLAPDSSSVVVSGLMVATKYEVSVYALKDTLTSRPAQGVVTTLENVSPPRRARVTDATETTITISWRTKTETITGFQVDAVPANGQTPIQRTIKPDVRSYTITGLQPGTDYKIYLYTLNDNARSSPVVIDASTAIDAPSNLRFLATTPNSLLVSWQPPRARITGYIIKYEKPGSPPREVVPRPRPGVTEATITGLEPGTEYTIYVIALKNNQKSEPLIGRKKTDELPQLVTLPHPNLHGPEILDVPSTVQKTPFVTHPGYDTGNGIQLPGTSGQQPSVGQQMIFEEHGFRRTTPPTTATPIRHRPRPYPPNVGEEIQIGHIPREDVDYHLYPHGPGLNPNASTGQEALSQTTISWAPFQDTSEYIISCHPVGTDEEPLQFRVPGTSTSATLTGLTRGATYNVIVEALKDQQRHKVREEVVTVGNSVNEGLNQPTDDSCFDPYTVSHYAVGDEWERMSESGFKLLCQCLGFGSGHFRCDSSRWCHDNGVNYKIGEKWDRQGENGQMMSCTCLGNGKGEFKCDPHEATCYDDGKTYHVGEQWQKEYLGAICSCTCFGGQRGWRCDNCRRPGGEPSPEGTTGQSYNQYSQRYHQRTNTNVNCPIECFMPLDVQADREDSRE

B1: PDGF-BB (murine wild-type platelet-derived growth factor-BB) (ligand)
chain: SLGSLAAAEPAVIAECKTRTEVFQISRNLIDRTNANFLVWPPCVEVQRCSGCCNNRNVQCRASQVQMRPVQVRKIEIVRKKPIFKKATVTLEDHLACKCETIVTPRPVT
In the case of B1, the values for the Kd with human plasma fibronectin [1] and with human vitronectin [2] were 60.2 nM and 29.8 nM, respectively.

B2: BMP-2 (bone morphogenetic protein-2, Peprotech) (ligand)
chain: QAKHKQRKRLKSSCKRHPLYVDFSDVGWNDWIVAPPGYHAFYCHGECPFPLADHLNSTNHAIVQTLVNSVNSKIPKACCVPTELSAISMLYLDENEKVVLKNYQDMVVEGCGCR
On to B2, for which the Kd in the assay with human fibrinogen is 46.4 nM; in the assay with human plasma fibronectin [3], 49.9 nM; in the assay with human tenascin C it was 19.5 nM; with human vitronectin [4], 12.6 nM.
